Where a chain is given by its changes, count along the chain named.

We go through seven molecules from patent publication US20250121082A1 (SHANDONG BOAN BIOTECHNOLOGY, published 2025).

T1: Human CD228 protein (human, UniProt P08582 20-708, limits assumed)
T1 construct: Recombinant protein made in CHO cells, purified over a Ni column; The printed entry begins with the leader (MRGPSG...) and ends with ten His; also called hCD228; CD228-His protein
T1 sequence: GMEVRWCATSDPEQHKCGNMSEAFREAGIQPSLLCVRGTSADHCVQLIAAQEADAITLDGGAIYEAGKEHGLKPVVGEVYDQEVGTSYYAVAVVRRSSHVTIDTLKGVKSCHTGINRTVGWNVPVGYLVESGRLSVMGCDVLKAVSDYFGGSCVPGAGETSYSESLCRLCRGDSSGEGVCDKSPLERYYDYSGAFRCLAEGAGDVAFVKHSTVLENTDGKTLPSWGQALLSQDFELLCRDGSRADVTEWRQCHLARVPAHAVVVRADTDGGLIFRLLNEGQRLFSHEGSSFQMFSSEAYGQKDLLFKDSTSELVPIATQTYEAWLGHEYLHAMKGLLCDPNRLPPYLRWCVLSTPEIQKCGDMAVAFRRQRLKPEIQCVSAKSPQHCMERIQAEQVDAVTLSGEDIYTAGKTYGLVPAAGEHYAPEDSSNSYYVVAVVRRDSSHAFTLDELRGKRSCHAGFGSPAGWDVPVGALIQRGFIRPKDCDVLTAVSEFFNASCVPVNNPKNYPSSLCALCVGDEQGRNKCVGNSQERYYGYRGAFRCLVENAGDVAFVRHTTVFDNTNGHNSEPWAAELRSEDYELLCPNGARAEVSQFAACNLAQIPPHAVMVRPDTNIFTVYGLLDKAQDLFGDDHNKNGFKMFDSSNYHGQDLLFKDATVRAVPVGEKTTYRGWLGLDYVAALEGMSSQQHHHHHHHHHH

B1: BA352 (antibody, human IgG1, kappa, V domains shown)
VH: EVQLVESGGGVVQPGRSLRLSCAASGFTFSSYAMHWVRQAPGKGLEWVAVISYDGSNKYYADSVKGRFTISRDNSKNTLYLQMNSLRAEDTAVYYCARGPYLAAAGTALTFDIWGQGTMVTVSS
VL: DIQMTQSPSAMSASVGDRVTITCRASQGINNYLAWFQQKPGKVPKRLIYAASSLQSGVPSRFSGSGSGTEFTLTISSLQPEDFATYYCLQHNSYPFTFGPGTKVDIKR
notes: Intact IgG1
B2: CA13 (antibody, human IgG1, kappa, V domains shown)
VH: EVQLVESGGGVVQPGRSLRLSCAASGFTFSSYAMHWVRQAPGKGLEWVAVISYDGSNKYYADSVKGRFTISRDNSKNTLFLQMNSLRAEDTAVYYCARDVYHYGSRSPYYYGMDVWGQGTTVTVSS
VL: DIVMTQSPSSLSASVGDRVTITCRASQGISNYLAWFQQKPGKVPKLLIYAASTLQSGVPSRFSGSGSGTDFTLTISSLQPEDVATYYCQKYNSAPFTFGPGTKVDIKR
notes: Intact IgG1 from fully human antibody-transgenic mice
B3: CA518 (antibody, human IgG1, kappa, V domains shown)
VH: B2 VH with Y60H, A97V
VL: B2 VL with V3Q, L11V, N31S, Y32W, F36Y, V43A, T53S
notes: Intact IgG1
B4: CA67 (antibody, human IgG1, kappa, V domains shown)
VH: B2 VH with F80Y
VL: B2 VL with V3Q, G28A, F36Y, Q55H, S56P
notes: Intact IgG1
B5: CA149 (antibody, human IgG1, kappa, V domains shown)
VH: EVQLVESGGGVVQPGRSLRLSCAASGFTFSSYAMHWVRQAPGKGLEWVAVISFDGSNKYYTDSVKGRFTISRDNSKNTLYLQMNSLRAEDTAVYYCAREVPYYYGSGPFDYWGQGTLVTVSS
VL: EIVLTQSPATLSVSPGERATLSCRASQSVSSNLAWYQQKPGQAPRHLIDGASSRASGIPDRFSGSGSGTDFTLTISRLEPEDFAVYYCQQYGSSPPFTFGPGTKVDIKR
notes: Intact IgG1; also called CA149 antibody
B6: CA185 (antibody, human IgG1, kappa, V domains shown)
VH: B5 VH with F53Y, T61A
VL: EIVLTQSPGTLSLSPGERATLSCRASQSVSSSSLAWYQQKPGQAPRHLIDGASSRASGIPDRFSGSGSGTDFTLTISRLEPEDFAVYYCQQYGSSYTFGQGTKVDIKR
notes: Intact IgG1
B7: reference antibody hL49 (antibody, human IgG1, kappa, V domains shown)
VH: QVQLQESGPGLVKPSETLSLTCTVSGDSITSGYWNWIRQPPGKGLEYIGYISDSGITYYNPSLKSRVTISRDTSKNQYSLKLSSVTAADTAVYYCARRTLATYYAMDYWGQGTLVTVSS
VL: DFVMTQSPLSLPVTLGQPASISCRASQSLVHSDGNTYLHWYQQRPGQSPRLLIYRVSNRFSGVPDRFSGSGSGTDFTLKISRVEAEDVGVYYCSQSTHVPPTFGQGTKLEIKR
notes: also called H149; hL49 analogy

The first test addresses T1, Human CD228 protein. Nature of the test: Octet competition on His-chip CD228; competitor: CA518. The procedure: (§1) CD228 proteins were immobilized on His chips at 10 μg/mL with a threshold of 0.5 nm. The first CD228 antibody (30 μg/mL) was immobilized, and the competitive binding of the second CD228 antibody (30 μg/mL) was analyzed. The Octet 8K system was used to analyze the response of antibody 2 and to determine whether antibody 1 and antibody 2 were in competition.
(§2) The final competition analysis was conducted using the following calculation method: 1—response value/blank value.
As to B1, the “competition (1-response value/blank value)” value is -4%.

Consider B2, for which the “competition (1-response value/blank value)” value amounted to 102%.

For B3, the “competition (1-response value/blank value)” value worked out at 101%.

For the molecule B4, the “competition (1-response value/blank value)” value came out at 103%.

For B5, the “competition (1-response value/blank value)” value was determined as 98%.

On to B6, for which the “competition (1-response value/blank value)” value stood at 99%.

With B7, the “competition (1-response value/blank value)” value is -3%.

The target of a further test is T1, Human CD228 protein. Nature of the test: affinity assay (method not given).
B5 gave a Kd of 1.99 nM.

The target of another test is T1, Human CD228 protein. Nature of the test: Octet competition on His-chip CD228; competitor: BA352. The procedure:
as §1, §2
With B1, the “competition (1-response value/blank value)” value came to 94%.

Turning to B2, the “competition (1-response value/blank value)” value was -9%.

As for B3, the “competition (1-response value/blank value)” value is -5%.

As to B4, the “competition (1-response value/blank value)” value was -8%.

In the case of B5, the “competition (1-response value/blank value)” value was -12%.

Take B6: the “competition (1-response value/blank value)” value is -17%.

Turning to B7, the “competition (1-response value/blank value)” value came to 55%.

A further test addresses T1, Human CD228 protein. Nature of the test: Octet competition on His-chip CD228; competitor: CA67. The procedure: as §1, §2
On to B1, for which the “competition (1-response value/blank value)” value is -4%.

Take B2: the “competition (1-response value/blank value)” value amounted to 100%.

With B3, the “competition (1-response value/blank value)” value is 99%.

B4: the “competition (1-response value/blank value)” value came to 102%.

Turning to B5, the “competition (1-response value/blank value)” value amounted to 98%.

Regarding B6, the “competition (1-response value/blank value)” value was 99%.

As to B7, the “competition (1-response value/blank value)” value was -7%.

The target of another test is T1, Human CD228 protein. The description is as above. This is another data set of the same source. The procedure: as §1
For B1, the Octet response value was 0.443.

Take B2: the Octet response value was -0.0021.

With B3, the Octet response value stood at 0.0039.

In turn, B4 gave an Octet response value of -0.007.

As for B5, the Octet response value amounted to 0.0087.

B6 yielded an Octet response value of 0.0028.

As for B7, the Octet response value came to 0.456.
